For assay [1], the system named is human corneal epithelial cell (HCEC). Description: HCEC chemotaxis, modified Boyden chemotaxis chamber. The class given is cell-based. Conditions: rCAP37 250 ng/ml; positive control for the peptide. The procedure:
The effect of buffer control (0.1% BSA in Gey's buffer), heparin binding-epidermal growth factor (HB-EGF, 50 ng/ml), recombinant CAP37 (rCAP37, 250 ng/ml), 120-146QH (10^−12M, 10^−10 M, 10^−8 M, 10^−6M, and 10^−4M,) and 120-146QR (10^−10M, 10^−8M, 10^−6M, and 10^−4M) on HCEC chemotaxis was determined by the modified Boyden chemotaxis chamber method. HCEC chemotaxis was measured in response to HB-EGF, rCAP37, and peptides 120-146QH (SEQ ID NO:29) and 120-146QR (SEQ ID NO:28) after incubation for 3 hours at 37° C. Chemotaxis is expressed as a percent migration. The buffer control (no chemoattractant) is arbitrarily assigned the value of 100% migration. Data are expressed as means±SEM and are calculated from 6 observations for each test point. **P<0.01 by Wilcoxon signed-rank test as compared to controls.
Chemotaxis: Chemotaxis assays were performed using the modified Boyden chemotaxis chamber assay. Peptide 120-146QH was used at 10^−4 M, 10^−6 M, 10^−8 M, 10^−10 M, and 10^−12 M, and peptide 120-146QR was used at 10^−4 M, 10^−6 M, 10^−8M, and 10^−10M.

For the next assay, the system named is mouse cornea. Nature of the assay: Histology (H&E) of corneal wound closure and re-epithelialization. The class given is in vivo. The conditions noted are these: rCAP37 250 ng/ml. The protocol: FIG. 23 is a histological analysis of corneal wound closure and re-epithelialization in response to CAP37. Corneas of mice were wounded using the Algerbrush II and treated at 0 and 16 hours with rCAP37 (250 ng/ml) or vehicle (normal saline). Whole eye globes were enucleated at 0, 24, and 48 hours post wounding, and sections were stained using hematoxylin and eosin (H&E). Representative images are shown of (A) CAP37-treated wound at 24 hours, (B) vehicle-treated wound at 24 hours, (C) CAP37-treated wound at 48 hours, and (D) vehicle treated wound at 48 hours. The extent of closure and re-epithelialization of wounds was compared with (E) normal unwounded cornea.
Histology: Whole mouse eyes were collected for histology at 0, 6, 16, 24, and 48 hours post wounding and were immediately placed in Prefer fixative (Anatech LTD., Battle Creek, Mich.) for 20 minutes before being transferred to 70% ethanol. Tissues were paraffin-embedded and cut at a thickness of 5 μm, mounted on SUPERFROSTPLUS® slides (Statlab Medical Products, Lewisville, Tex.), and subsequently deparaffinized, rehydrated, and washed in deionized water. Sections were stained with hematoxylin (Leica Microsystems, Buffalo Grove, Ill.) and rinsed twice in deionized water before being washed in Blue Buffer (Leica Microsystems). […]

In another assay the test system is PKCα. Description: Immunofluorescence for PKCα in HCEC monolayers. Conditions: CAP37 500 ng/ml; 15 minutes. The class given is cell-based, human. The procedure:
HCEC monolayers were grown to confluency and were scratched with a 10 μl pipette tip or left unscratched, and then the monolayers were treated for 15 minutes with (A-B) buffer, (C-D) PMA (1 μM), (E-F) 250 ng/ml CAP37, and (G-J) 500 ng/ml CAP37. Cells were stained for PKCδ (250 ng/ml; (A-H)), and PKCα (1 μg/ml; (I-J)) and detected using immunofluorescence (4 μg/ml, ALEXA FLUOR® 488 dye (Life Technologies Corp., Grand Island, N.Y.)). […] Scratched monolayers that were treated for 18 hours with CAP37 (250 ng/ml; (L)) or left untreated (K) were stained for PKCδ. […] Scale bars, 20 μm.
Immunofluorescence: HCECs and primary HCECs were cultured on Lab-Tek® II glass chamber slides (Nunc, Rochester, N.Y.) and starved overnight in basal media. For wounding studies, monolayers were scratched with a 10 μl pipette tip or left unscratched and treated with 1 μM phorbol 12-myristate 13-acetate (PMA, Sigma-Aldrich), rCAP37 (25-500 ng/ml), or basal KSFM (Gibco) for 15 minutes. After treatment, the cells were fixed in 4% (v/v) formaldehyde solution (Thermo, Rockford, Ill.) in PBS (Gibco) for 20 minutes at room temperature followed by permeabilization in 0.5% TRITON™-X 100 (Mallinckrodt, St. Louis, Mo.) in PBS for 10 minutes. Remaining formaldehyde was quenched with 0.05 M ammonium chloride (NH4Cl, Sigma-Aldrich, St. Louis, Mo.) in PBS for 10 minutes. […]

B1: CAP37: cationic antimicrobial protein of Mr 37 kDa; recombinant CAP37 produced in human embryonic kidney (HEK) 293 cells (protein)
chain: IVGGRKARPRQFPFLASIQNQGRHFCGGALIHARFVMTAASCFQSQNPGVSTVVLGAYDLRRRERQSRQTFSISSMSENGYDPQQNLNDLMLLQLDREANLTSSVTILPLPLQNATVEAGTRCQVAGWGSQRSGGRLSRFPRFVNVTVTPEDQCRPNNVCTGVLTRRGGICNGDGGTPLVCEGLAHGVASFSLGPCGRGPDFFTRVALFRDWIDGVLNNPGP
In the case of B1, the “migration of HCECs vs buffer control, in words” value in assay [1] was “significant increase in migration”. Moreover, in the assay on mouse cornea (24 hours), the “re-epithelialization vs vehicle, in words” value was “greatly accelerated in comparison to the vehicle-treated wounds”. Moreover, the “structural integrity of the epithelium, in words” value with mouse cornea (48 hours) was “regained full integrity”. The “PKCα staining, in words” value in the assay on PKCα was “no increase in PKCα staining”.

The values are drawn from US11884710B2, “Peptide compounds and methods of use in wound healing” (priority 2013, dated 2024).
